Assay results taken from US7396816B2, “Low-molecular weight peptides inhibiting ion channel activity” (Pharmadesign, Inc., priority 2003, dated 2008).
Where no end group is shown, it is not given here.

Assays:
[1] = target: T1, STREX-deletion-mutant (Gallus gallus, UniProt Q8AYS8, DEL657-715); assay: single channel current recording, specificity to mechano-sensitive channel; type: cell-based; conditions: mutant lacking the 59 amino acid STREX sequence, FIG. 13
T1 construct: expressed in transfected cells; host or cells: CHO cells (inferred: a deletion mutant must be expressed heterologously, and CHO is the only expression host named for this channel)
T1 sequence (Q8AYS8 with tags, fused parts or gaps isoform Q8AYS8-3 DEL657-715): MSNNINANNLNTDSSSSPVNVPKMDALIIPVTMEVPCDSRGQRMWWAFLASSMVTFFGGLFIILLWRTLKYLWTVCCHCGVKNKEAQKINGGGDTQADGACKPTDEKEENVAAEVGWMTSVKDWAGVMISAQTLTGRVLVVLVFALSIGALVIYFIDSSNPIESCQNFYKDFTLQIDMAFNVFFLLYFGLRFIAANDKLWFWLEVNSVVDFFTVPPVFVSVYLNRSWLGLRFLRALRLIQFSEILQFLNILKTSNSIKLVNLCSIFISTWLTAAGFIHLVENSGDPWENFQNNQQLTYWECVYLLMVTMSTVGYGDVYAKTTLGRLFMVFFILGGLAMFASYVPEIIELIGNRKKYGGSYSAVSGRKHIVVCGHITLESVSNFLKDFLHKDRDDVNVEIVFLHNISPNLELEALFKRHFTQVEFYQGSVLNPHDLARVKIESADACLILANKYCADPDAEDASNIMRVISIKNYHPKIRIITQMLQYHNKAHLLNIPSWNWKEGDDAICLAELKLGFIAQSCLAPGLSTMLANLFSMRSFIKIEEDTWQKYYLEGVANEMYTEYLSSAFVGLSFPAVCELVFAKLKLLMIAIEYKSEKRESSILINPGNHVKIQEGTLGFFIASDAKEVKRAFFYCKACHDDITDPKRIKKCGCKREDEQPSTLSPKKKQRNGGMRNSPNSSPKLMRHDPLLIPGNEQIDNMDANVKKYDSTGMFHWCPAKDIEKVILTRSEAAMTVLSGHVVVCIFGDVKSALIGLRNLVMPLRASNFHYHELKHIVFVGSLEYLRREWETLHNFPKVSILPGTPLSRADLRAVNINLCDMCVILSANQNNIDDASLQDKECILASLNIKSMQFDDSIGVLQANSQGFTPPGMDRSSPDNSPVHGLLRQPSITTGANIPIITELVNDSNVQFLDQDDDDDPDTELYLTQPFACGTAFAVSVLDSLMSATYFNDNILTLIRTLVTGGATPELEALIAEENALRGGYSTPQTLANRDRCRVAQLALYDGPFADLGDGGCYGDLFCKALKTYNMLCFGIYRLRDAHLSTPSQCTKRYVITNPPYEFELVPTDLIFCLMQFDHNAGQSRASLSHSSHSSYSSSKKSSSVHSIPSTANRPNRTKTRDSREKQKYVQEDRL
Method: Activity assay of the peptides was carried out by the most reliable single channel current recording method using the patch clamp method. As the subject of the assay, Ca^2+ dependant BigK channel (Kawakubo et. Am J Physiol, 276: H1827.1999) derived from heart muscle was employed. By applying this channel to the expressed ventricle muscle of chicken or to CHO cells force-expressing the cDNA of this channel with the cell-attached patch clamp method, an inside-out excised patch was formed, and single channel current recordings were taken under a fixed membrane potential. […] If the exact dissociation constant of the peptide is to be calculated, it is necessary to prepare an outside-out excised patch, take single channel current recordings, analyze the inhibition effects of various peptides with different concentration, and obtain a dose-inhibition curve; however, as this method requires special technology and as this is the primary screening of the various designed synthetic peptides, the assay method combining the inside-out excised patch and back-fill described above was used to make a rough estimate of the inhibition effects of the peptides. […]

[2] = target: T2, Ca^2+ dependant BigK channel derived from heart muscle (myocardial SA channel) (Gallus gallus, UniProt Q8AYS8); assay: single channel current recording by patch clamp (inside-out excised patch, back-fill); type: cell-based, chicken; conditions: for inhibition of wild-type SA channel: wild-type myocardial SA channel, FIG. 13; for inhibiting activity: primary screening, channel's open probability (Po); for level of inhibiting activity compared with GsMTx-4: suggested from time taken for inhibition
T2 construct: expressed in transfected cells; host or cells: CHO cells force-expressing the channel cDNA, or the endogenous channel of chicken ventricular muscle
T2 sequence (Q8AYS8 1-1195 isoform Q8AYS8-3): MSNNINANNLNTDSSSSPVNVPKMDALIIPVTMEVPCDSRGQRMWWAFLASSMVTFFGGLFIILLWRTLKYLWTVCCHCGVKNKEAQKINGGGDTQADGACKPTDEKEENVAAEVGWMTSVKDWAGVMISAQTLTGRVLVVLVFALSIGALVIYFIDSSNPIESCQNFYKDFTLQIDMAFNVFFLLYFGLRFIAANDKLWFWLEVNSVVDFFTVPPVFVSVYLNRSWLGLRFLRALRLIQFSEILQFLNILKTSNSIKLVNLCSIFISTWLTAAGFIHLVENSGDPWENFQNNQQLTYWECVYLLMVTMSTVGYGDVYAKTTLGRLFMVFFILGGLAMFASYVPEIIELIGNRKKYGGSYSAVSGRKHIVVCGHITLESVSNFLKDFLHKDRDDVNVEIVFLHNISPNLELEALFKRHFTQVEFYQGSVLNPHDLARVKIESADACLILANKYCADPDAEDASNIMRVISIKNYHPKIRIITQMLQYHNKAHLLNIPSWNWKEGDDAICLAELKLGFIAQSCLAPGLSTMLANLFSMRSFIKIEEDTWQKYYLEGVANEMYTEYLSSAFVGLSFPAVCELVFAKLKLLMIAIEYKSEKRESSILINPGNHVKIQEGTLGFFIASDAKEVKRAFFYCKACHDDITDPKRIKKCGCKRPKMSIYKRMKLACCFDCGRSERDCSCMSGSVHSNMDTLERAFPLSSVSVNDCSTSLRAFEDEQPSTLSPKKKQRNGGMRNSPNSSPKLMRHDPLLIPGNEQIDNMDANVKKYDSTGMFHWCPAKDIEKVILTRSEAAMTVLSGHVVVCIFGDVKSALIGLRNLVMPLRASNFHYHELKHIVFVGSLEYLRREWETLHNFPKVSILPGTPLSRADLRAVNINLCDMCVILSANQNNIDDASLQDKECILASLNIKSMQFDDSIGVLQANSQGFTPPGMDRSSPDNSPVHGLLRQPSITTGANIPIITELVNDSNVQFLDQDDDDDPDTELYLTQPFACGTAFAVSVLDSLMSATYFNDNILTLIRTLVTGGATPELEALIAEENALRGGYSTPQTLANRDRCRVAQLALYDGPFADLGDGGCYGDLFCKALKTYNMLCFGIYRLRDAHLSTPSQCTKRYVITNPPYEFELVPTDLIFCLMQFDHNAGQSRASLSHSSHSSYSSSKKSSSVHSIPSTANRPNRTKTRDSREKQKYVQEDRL
Method: Activity assay of the peptides was carried out by the most reliable single channel current recording method using the patch clamp method. As the subject of the assay, Ca^2+ dependant BigK channel (Kawakubo et. Am J Physiol, 276: H1827.1999) derived from heart muscle was employed. By applying this channel to the expressed ventricle muscle of chicken or to CHO cells force-expressing the cDNA of this channel with the cell-attached patch clamp method, an inside-out excised patch was formed, and single channel current recordings were taken under a fixed membrane potential. Assuming that the designed synthetic peptide blocks the channel extracellularly the same as GsMTx-4, the space a fixed distance above the glass pipette used for recording was filled with the peptide of a known concentration beforehand, and administration was carried out by back-fill which utilizes diffusion to reach the channel, With this method, the concentration of the peptide inside the pipette reaches equilibrium 15 to 20 minutes after the start of diffusion, and so the dissociation constant of the peptide can be estimated from the inhibition ratio at 20 minutes and onwards. Or, the relative inhibition of the peptide can be estimated from the time taken for inhibition. If the exact dissociation constant of the peptide is to be calculated, it is necessary to prepare an outside-out excised patch, take single channel current recordings, analyze the inhibition effects of various peptides with different concentration, and obtain a dose-inhibition curve; however, as this method requires special technology and as this is the primary screening of the various designed synthetic peptides, the assay method combining the inside-out excised patch and back-fill described above was used to make a rough estimate of the inhibition effects of the peptides. […] Concerning the scale of evaluation, the channel's open probability (Po, indicated in percentage) was used, and the level of inhibition was expressed by the inhibition ratio (percentage) with the control (prior to the administration of the peptide) as the standard, or by the time taken for inhibition.

Substance: GsMTx-4 (GCLEFWWKCNPNDDKCCRPKLKCSKLFKLCNFSSG; disulfide (positions not given here); ends not checked; listed as Grammostola spatulata) [reference compound]
- inhibition of STREX-deletion-mutant [1]: do not inhibit the STREX-deletion-mutant hardly at all
- inhibition of wild-type SA channel [2]: inhibit the wild-type SA channel

Substance: TVP004: designed peptide from GsMTx-4 comprising loop 3 (CARPKLKC)
- inhibition (channel's open probability Po vs control) ([2]; 10 μM, after 16 minutes): 95%
- inhibition (channel's open probability Po vs control) ([2]; after 8 minutes): about 60%
- inhibiting activity [2]: displayed inhibiting activity

Substance: TVP005: designed peptide from GsMTx-4 comprising loops 2 and 3 (WKCNPNDDKAARPKLKC)
- inhibition (channel's open probability Po vs control) ([2]; after 20 minutes): about 60%
- inhibiting activity [2]: displayed inhibiting activity

Substance: TVP017: mutation in which the 3rd R from the N-terminus of TVP004 had been substituted by A (CAAPKLKC)
- inhibition (channel's open probability Po vs control) ([2]; after 6 minutes): 100%
- inhibiting activity [2]: found to show inhibiting activity
- level of inhibiting activity compared with GsMTx-4 [2]: higher level than
- level of inhibition compared with TVP003 ([2]; time taken for inhibition): even higher level of inhibition than TVP003

Substance: TVP019: mutation in which the 7th K from the N-terminus of TVP004 had been substituted by A (CARPKLAC)
- inhibition (channel's open probability Po vs control) ([2]; after 14 minutes): approximately 80%
- inhibiting activity [2]: found to show inhibiting activity

Substance: WKCNPNDDKC [TVP003]
- inhibition of STREX-deletion-mutant [1]: do not inhibit the STREX-deletion-mutant hardly at all
- inhibition (channel's open probability Po vs control) ([2]; after 8 minutes): 100%
- dissociation constant ([2]; estimated from inhibition ratio): μM order or lower
- inhibiting activity [2]: displayed inhibiting activity
- level of inhibiting activity compared with GsMTx-4 [2]: the same as or higher than
- inhibition of wild-type SA channel [2]: inhibit the wild-type SA channel
